Positions count from the first letter of the chain named.
T1: recombinant human TROP2 protein (human, UniProt P09758 27-274)
T1 chain: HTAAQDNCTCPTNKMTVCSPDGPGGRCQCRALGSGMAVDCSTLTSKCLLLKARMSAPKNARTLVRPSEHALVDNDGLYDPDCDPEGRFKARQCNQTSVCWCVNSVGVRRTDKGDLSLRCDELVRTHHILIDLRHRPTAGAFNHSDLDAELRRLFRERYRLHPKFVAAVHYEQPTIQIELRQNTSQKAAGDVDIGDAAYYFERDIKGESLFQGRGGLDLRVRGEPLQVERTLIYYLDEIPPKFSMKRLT

T2: human TROP2 (antigen of panning and clone screening) (human, UniProt P09758 27-274, limits assumed)
T2 construct: also called human TROP2-His protein; TROP2-expressing CHOK1 cells
T2 sequence (looked up): T1 chain

B1: TROP2 CAR with anti-TROP2 VHH #TP6, on γδ T cells (other)
chain: QLQLVESGGGLVQPGGSLRLSCAASGTLDYWTVGWFRQAPGKEREGVSCISSSDSSTYYADSVKGRFTISRDNAKNTVYLQMNSLKPEDTAVYYCAAGSLGYCSRSTPQYEYDFWGQGTQVTVSSTTTPAPRPPTPAPTIASQPLSLRPEACRPAAGGAVHTRGLDFACDIYIWAPLAGTCGVLLLSLVITLYCKRGRKKLLYIFKQPFMRPVQTTQEEDGCSCRFPEEEEGGCELRVKFSRSADAPAYQQGQNQLYNELNLGRREEYDVLDKRRGRDPEMGGKPRRKNPQEGLYNELQKDKMAEAYSEIGMKGERRRGKGHDGLYQGLSTATKDTYDALHMQALPPR
B2: TROP2 CAR with anti-TROP2 VHH #TP2, on γδ T cells (other)
chain: EVQLVESGGGLAQPGGSLRLSCAASGFTFSTYAMSWARQAPGKGLEWVSGIYADGSGTYYADSVKGRFTISRDNAKNTLYLQMNSLKPEDTALYYCAQGYSDYDRRLGEYDYWGQGTQVTVSSTTTPAPRPPTPAPTIASQPLSLRPEACRPAAGGAVHTRGLDFACDIYIWAPLAGTCGVLLLSLVITLYCKRGRKKLLYIFKQPFMRPVQTTQEEDGCSCRFPEEEEGGCELRVKFSRSADAPAYQQGQNQLYNELNLGRREEYDVLDKRRGRDPEMGGKPRRKNPQEGLYNELQKDKMAEAYSEIGMKGERRRGKGHDGLYQGLSTATKDTYDALHMQALPPR
B3: TROP2 CAR with anti-TROP2 VHH #TP14, on γδ T cells (other)
chain: EVQVVESGGGLVQPGGSLRLSCAVSGFTLDWYAIGWFRQAPGKEHEGVACIDPSERSTYADPVKGRFTISRDNAKNTVHLQMNSLKPEDTAVYYCAADTLPCFFYGSMWPPPDNWGQGTQVTVSSTTTPAPRPPTPAPTIASQPLSLRPEACRPAAGGAVHTRGLDFACDIYIWAPLAGTCGVLLLSLVITLYCKRGRKKLLYIFKQPFMRPVQTTQEEDGCSCRFPEEEEGGCELRVKFSRSADAPAYQQGQNQLYNELNLGRREEYDVLDKRRGRDPEMGGKPRRKNPQEGLYNELQKDKMAEAYSEIGMKGERRRGKGHDGLYQGLSTATKDTYDALHMQALPPR
B4: anti-TROP2 #TP16 VHH (VHH)
VHH: QVQLVESGGGLVQPGGSLRLSCAASGFAFSFYVMTWYRQAPGKQREQVAAITSYGGANYADSVKGRFTISRDNAKNTVYLQMNALTSEDTAVYSCNAHLGPYDYWGQGTQVTVSS
B5: anti-TROP2 #TP1 VHH (VHH)
VHH: EVQVVESGGGLAQPGGSLRLSCAASGFWFSTYAMSWARQAPGKGLEWVSGIYADGSATYYADSVKGRFTISRDNAKNTLYLHMNSLKPEDTALYYCAQGYSDYDRRVGGYDYWGQGTQVTVSS
B6: anti-TROP2 #TP2 VHH (VHH)
VHH: B5 VHH with V4L, W28T, A57G, H82Q, V107L, G109E
B7: anti-TROP2 #TP4 VHH (VHH)
VHH: QLQLVESGGGLVQPGGSLRLSCAASGFTLDDYAMRWFRQAPGKAREGVSCISRSDGTTYYADSVKGRFTISRNNAENTVYLQMNSLKPEDTAVYYCAADSLGCNGYSDWGVDYWAKGTLVTVSS
B8: anti-TROP2 #TP5 VHH (VHH)
VHH: QLQLVESGGGLVQPGGSLKLSCAASGFTLDYWTIGWFRQAPGKEREGVSCISSSDGSTYYADSVKGRFTISRDNAKRTVNLQMNSLKPEDTAVYYCAAGSLGYCSRSTPQYEYDFWGQGTQVTVSS
B9: anti-TROP2 #TP8 VHH (VHH)
VHH: B8 VHH with K19R, I51V, D55G, S57I, A75E, N80Y, F115Y
B10: anti-TROP2 #TP7 VHH (VHH)
VHH: B8 VHH with K19R, T28S, D30E, Y31H, G56A, R77K, T78S, N80Y, P88L, F115Y
B11: anti-TROP2 #TP14 VHH (VHH)
VHH: EVQVVESGGGLVQPGGSLRLSCAVSGFTLDWYAIGWFRQAPGKEHEGVACIDPSERSTYADPVKGRFTISRDNAKNTVHLQMNSLKPEDTAVYYCAADTLPCFFYGSMWPPPDNWGQGTQVTVSS
B12: anti-TROP2 #TP11 VHH (VHH)
VHH: QVQLVESGGGLVQPGGSLRVSCAASGFRLDYYAIGWFRQAPGKEREGVSSINYSSGSTVYADSVKGRFTISRGNAKNTVYLQMNSLKPEDTAVYYCAVGTVVTSLAPYEYDYWGQGTQVTVSS
B13: anti-TROP2 #TP20 VHH (VHH)
VHH: EVQVVESGGGLVQPGGSLRLSCAASGNIKSTAVMGWHRQAPGKEREWVAIITTGEDRFSGDRLQYADSVKDRFTISRDNAKNTVYLQMNSLKPEDTAVYYCNVDVLYMADGRYARSEFWGQGTQVTVSS
B14: anti-TROP2 #TP6 VHH (VHH)
VHH: QLQLVESGGGLVQPGGSLRLSCAASGTLDYWTVGWFRQAPGKEREGVSCISSSDSSTYYADSVKGRFTISRDNAKNTVYLQMNSLKPEDTAVYYCAAGSLGYCSRSTPQYEYDFWGQGTQVTVSS
B15: anti-TROP2 #TP17 VHH (VHH)
VHH: EVQLVESGGGMVQPGGSLRLSCAFSGLTFSNYAMTWYRQAPGKERELVAGTPSPGGTTTYADSVKGRFTISRDNAEDTVYLQMNSLKPEDTAVYYCHARWMWPSDNAGMGYWGKGTLVTVSS
B16: anti-TROP2 #TP13 VHH (VHH)
VHH: EVQLVESGGGLVQPGGSLRLSCALSGFTKDYYGIGWFRQAPGKEREGVSCISVSGSSTNYADSVKGRFTISRDNAKNTVYLQMNSLKPEDTGVYYCAAAFMGSDYVVPEMSREYDYWGQGTQVTVSS
B17: anti-TROP2 #TP18 VHH (VHH)
VHH: QVQLVESGGGLVQPGGSLRLSCAASSSIFSIAIMGWYRQAPGKQRELVATISATDVTHYADSVKGRFTISRDDAWNAVYLQMDSLKAEDTAVYYCNSYLLQQRVPWGQGTQVTVSS
B18: anti-TROP2 #TP19 VHH (VHH)
VHH: B17 VHH with Q1E, L4V, S26R, I28V, S30N, T50S, H58S, A87S
B19: anti-TROP2 #TP12 VHH (VHH)
VHH: QVQLVESGGGLVQPGGSLRLSCAASRFTLDYYAIGWIRQAPGKEREGVSCISSSGGSTNYADSVKGRFTISRDNAKNTVYLQMNSLKPEDTGVYYCAATTYACSGYVPRAYEYDYWGQGTQVTVSS
B20: anti-TROP2 #TP15 VHH (VHH)
VHH: QVQLVESGGGLVQPGGSLRLSCAVSGDIFSFYSMGWYRQAPGEQRELVAHITSGGSTHYADSVKGRFTISRDNAKNTVYLQMNSPKPEDTAVYYCNADLDYWVDSMGPYWGQGTQVTVSS
B21: anti-TROP2 #TP9 VHH (VHH)
VHH: QVQLVESGGGLVQPGGSLRLSCAASGFSLDYWAIAWFRQAPGKEREGVSCSGSRGSTHYADSVKGRFTISRDNAKNTVYLQMNSLKPEDAGVYYCAVGSTLYSLTPYEYDYWGQGTQVTVSS
B22: anti-TROP2 #TP10 VHH (VHH)
VHH: B21 VHH with S28R, Y31H, A35G, R54D, G55E, H58Y, A90T, L101W

Target: T1, recombinant human TROP2 protein
Assay: binding of TROP2 protein to binder-expressing γδ T cells
B1 gave an EC50 of 17.7 nM.
B2 gave an EC50 of 3.43 nM.
For B3, the EC50 was 3.65 nM.

These binders were tested against T2, human TROP2 (antigen of panning and …) (assay: positive phage clones from panning on human TROP2-His protein or on TROP2-expressing CHOK1 cells, ELISA).
Excerpt: After confirming successful immunization with TROP2 protein, PBMC was isolated and used for construction of a phage display library with the size of 2.42×10⁹ cfu. TROP2 VHH binders were isolated from the phage display library using solid phase panning on human TROP2-His protein and cell-based panning on the engineered, TROP2-expressing CHOK1 cells in two parallel discovery campaigns. […] Stringency was increased during successive rounds by decreasing antigen concentration, increasing the number and duration of washes, and/or changing the duration of selections. The positively identified phages were diluted and spread on a petri dish to grow single colonies. Individual phage clones were selected and amplified. […] After three rounds of screening on TROP2 CHOK1 cells, a total of 384 clones were selected, of which 163 clones were TROP2-specific as tested by ELISA. After sequencing the positive clones, 9 unique sequences were obtained based on amino acid sequences. In combination, a total of 20 unique sequences were identified.
B4: binds.
B5: binds.
B6: binds.
B7: binds.
B8: binds.
B9: binds.
B10: binds.
B11: binds.
B12: binds.
B13: binds.
B14: binds.
B15: binds.
B16: binds.
B17: binds.
B18: binds.
B19: binds.
B20: binds.
B21: binds.
B22: binds.

Reference: patent publication US20260242730A1 (POINTLOMA BIOSCIENCES, published 2026)
